The results in this text go back to paper PMC8746622, “Purification, Characterization, and Structural Studies of a Sulfatase from Pedobacter yulinensis” (Molecules, 2021).

The target in data set [1] is Pedobacter yulinensis sulfatase (PyuS), recombinant, without the putative N-terminal signal peptide, C-terminal His6-tag (Pedobacter yulinensis). As to the kind of experiment: SEC; HiLoad 16/600 Superdex 200 pg, 10 mM Tris, 150 mM sodium chloride, pH 8.0, 1.2 mL/min, 4 °C; molecular weights of the two peaks from SEC MW standards; monomer and dimer. Background: Size exclusion chromatography separates by hydrodynamic size, large species first.

Substrate in the data set “purified protein”: Cc1cc(=O)oc2cc(OS(=O)(=O)O)ccc12
As to the kind of experiment: purified protein. Type of data set: biochemical, Pedobacter yulinensis. The settings on record: 25 mM Bis-Tris pH 6.5, 1.0 mM CaCl2, room temperature, SEC monomer.

The term stoichiometry N denotes a count of units in the complex or per binding partner. A word on the Km: it is the concentration of substrate that gives half-maximal velocity. Usually kcat stands for the maximal rate divided by the concentration of active sites.

As for “Pedobacter yulinensis sulfatase (PyuS), recombinant, without the putative N-terminal signal peptide, C-terminal His6-tag (enzyme)”, in data set [1], the percent of soluble protein as homodimer turned out to be 10% and the stoichiometry N was found to be 2.

B1: PyuS (Pedobacter yulinensis) (protein)
chain: QGSRKPNIIFIMADDLGWGELGSYGNTFNETPNLDRLSAQGMRFTQAYAAAPVCSPTRASIMTGQYPARVGITDFLPEDEKTDRWLDPTKYVTLNEALSASGYHTGIVGKWHLDTDFKLNKGGPKAHGFNEVIGTESEYIADGDYFFPYSKIASFDKGTANEYLTDRQCAEANAFITRNREKPFFLYLSLYSVHTRLEAPVQLVEKYKQKFDQKYGTGKAEQFFGANNVRHESAQRDNPWLAAMLESIDTGVGGIMKTLRETGLAENTIIVFFSDNGGAGKAGNNAHLRAGKTWLYEGGIREPLIVSWPGKIKGNTVNDNPVTSLDFYPTFLAAAGGKPTGGRLDGHNLMPLLRGGRASGRPLFWHYPSETGKWVNRMSSAVREGNYKLLEFYNNPRLELYDLQNDPSESHNLATDRPAETARLKKLLEDWKKEVNAEAPHLARKEKKKP
notes: signal peptide (native residues 2-24) removed; C-terminal GSHHHHHH tag kept; expressed in E. coli with M. tuberculosis FGE (active-site Cys converted to formylglycine, FGly55); 459 residues, 51,320 Da; SEC monomer
On to B1, for which, in “purified protein”, the Km came to 1890 µM and the kcat was 0.00983 s⁻¹.
